Experimental data reported in patent US20120282173A1 (FORERUNNER PHARMA RESEARCH, published 2012).

Legend:
[1] = target: T1, HB-EGF expressed on the cell membrane (proHB-EGF), from pMCN_HB-EGF in DG44 and SKOV-3 cells or intrinsic in … (human, UniProt Q99075 20-208); test: FACS on HB-EGF_DG44 cells, FITC-labeled anti-human IgG, Geo-Mean against concentration; the text says ED50, about
T1 construct: Full-length human HB-EGF without the cleavage-site mutation

[2] = target: T2, active-form HB-EGF protein (R&D Systems, Inc., 259-HE) (human, UniProt Q99075 63-148); test: ELISA on plate coated with 1 ug/mL HB-EGF protein (R&D 259-HE), AP-labeled anti-human IgG; the text says ED50, about
T2 construct: Bought protein; also called sHB-EGF; secretory HB-EGF

[3] = target: T2, active-form HB-EGF protein (R&D …); test: cell-based or functional assay
[4] = target: proHB-EGF mutated at the protease cleavage site, expressed on Ba/F3 cells (HB-EGF_Ba/F3) (human) (UniProt Q99075); test: FACS, hybridoma culture supernatant on HB-EGF_Ba/F3 cells, EXP. 2 (no-mAb 6.9)
[5] = target: proHB-EGF mutated at the protease cleavage site, expressed on Ba/F3 cells (HB-EGF_Ba/F3) (human) (UniProt Q99075); test: FACS, hybridoma culture supernatant on HB-EGF_Ba/F3 cells, EXP. 1 (no-mAb 19.1)
[6] = target: T1, HB-EGF expressed on the cell membrane …; test: cell-based or functional assay

T1 sequence (Q99075 20-208 limits assumed): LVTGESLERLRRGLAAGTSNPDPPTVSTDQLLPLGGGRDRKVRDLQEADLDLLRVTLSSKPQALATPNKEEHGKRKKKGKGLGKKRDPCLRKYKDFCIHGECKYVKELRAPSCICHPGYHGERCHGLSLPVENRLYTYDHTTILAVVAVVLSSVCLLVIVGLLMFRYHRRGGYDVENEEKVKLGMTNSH
T2 sequence (Q99075 63-148 limits assumed): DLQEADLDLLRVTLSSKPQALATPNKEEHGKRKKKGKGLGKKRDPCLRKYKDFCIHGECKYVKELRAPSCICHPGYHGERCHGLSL

B1: chHE39, human chimeric antibody derived from HE39 antibody (antibody, V domains shown)
VH: EVQLQQSGPELMKPGASVKMSCKASGYIFTDYYMNWVKQSHGKSLEWIGRVNPNNGGTSYSQKFKDKATLTVDKSLNTAYMQVNSLTSEDSAVYYCARIYYGGSDWGQGTTLTVSS
VL: EIVMTQTPLSLSVTIGQPASISCKSSQSLLYTTGKTYLNWLQQRPGQAPKHLMYQVSKLVPGIPDRFSGSGSETDFTLKISRVEAEDLGVYYCLQGTYYPHTFGSGTKLEIKR
notes: Mouse HE39 variable regions linked to human IgG1 constant regions
In the case of B1, the EC50 [1] is reported as 5.3 nM and the EC50 [2] is reported as 0.42 nM.

B2: HC-15 antibody (antibody, V domains shown)
VH: EVQLQQSGPELVKPGASVKISCKASGYSFTGYYMHWVKQSPEKRLEWIGEINPRTGITTYNQKFKAKATLTVDKSSSTAYMQLKSLTSEDSAVYYCARVGSSGPFTYWGQGTLVTVSA
VL: DIVMTQSPSSLSVSAGDKVTMSCKSSQSLLNSRNQKNYLAWYQQKPWQPPKLLIYGASTRESGVPDRFTGSGSGTDFTLTISSVQAEDLAVYYCQNDYSYPFTFGTGTKLEIK
With B2 the “EC50 of the growth-inhibiting effect on EGFR_Ba/F3 cells” value [3] was 3.8 nM, the FACS (GEO-mean) [4] was 234 GEO-mean and the FACS (GEO-mean) [5] was 594 GEO-mean.

B3: saporin-labeled HC-15 antibody (HC-SAP) (antibody, V domains shown)
VH: EVQLQQSGPELVKPGASVKISCKASGYSFTGYYMHWVKQSPEKRLEWIGEINPRTGITTYNQKFKAKATLTVDKSSSTAYMQLKSLTSEDSAVYYCARVGSSGPFTYWGQGTLVTVSA
VL: DIVMTQSPSSLSVSAGDKVTMSCKSSQSLLNSRNQKNYLAWYQQKPWQPPKLLIYGASTRESGVPDRFTGSGSGTDFTLTISSVQAEDLAVYYCQNDYSYPFTFGTGTKLEIK
modifications: antibody labeled with an average of 2.4 saporin molecules; sites not stated
For B3, the “EC50 of cell death induction, ES-2 cells (WST-8)” value [6] was 0.09 nM, the “EC50 of cell death induction, MCAS cells (WST-8)” value [6] was 0.86 nM and the “EC50 of cell death induction, SKM-1 cells (WST-8)” value [6] was 0.02 nM. The “EC50 of cell death induction, THP-1 cells (WST-8)” value [6] was 0.01 nM and the “EC50 of cell death induction, U937 cells (WST-8)” value [6] was 0.33 nM.

B4: chHC15, human chimeric antibody derived from HC15 antibody (antibody, human IgG1, kappa, V domains shown)
VH: EVQLQQSGPELVKPGASVKISCKASGYSFTGYYMHWVKQSPEKRLEWIGEINPRTGITTYNQKFKAKATLTVDKSSSTAYMQLKSLTSEDSAVYYCARVGSSGPFTYWGQGTLVTVSA
VL: DIVMTQSPSSLSVSAGDKVTMSCKSSQSLLNSRNQKNYLAWYQQKPWQPPKLLIYGASTRESGVPDRFTGSGSGTDFTLTISSVQAEDLAVYYCQNDYSYPFTFGTGTKLEIKR
With B4 the EC50 [1] was 3.3 nM and the EC50 [2] was 0.21 nM.
